Source: article PMC10896300

Target: Recombinant 6×His-tagged CrMCA-II (Chlamydomonas reinhardtii)
Experiment: SEC; purified rCrMCA-II in buffer without DTT and Ca2+; with 1 mM DTT in the SEC buffer the dimer-to-monomer ratio decreased

With “Recombinant 6×His-tagged CrMCA-II (enzyme)” the stoichiometry N was 2.
